According to publication PMC9271825:
Several values for one entry are separate records, joined by “and”; a condition that tells them apart may be missing. Equal entries are not always repeated.

Target: T1, Human Claudin-7 (Cldn7), wild type, His-tagged (human), O95471
T1 chain: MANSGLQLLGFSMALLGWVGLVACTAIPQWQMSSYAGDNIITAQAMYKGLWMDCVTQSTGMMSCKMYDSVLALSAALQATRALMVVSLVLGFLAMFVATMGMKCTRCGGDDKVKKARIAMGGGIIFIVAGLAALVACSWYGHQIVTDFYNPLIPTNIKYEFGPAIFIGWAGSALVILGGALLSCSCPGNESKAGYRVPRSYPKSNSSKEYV
Test: SDS-PAGE and Western blot of SDS-stable oligomers; purified Cldn7 (IMAC eluate) on 10% SDS-PAGE, detected with an anti-His-tag antibody
Conditions: remark: other sources report otherwise

B1: Human Claudin-7 (Cldn7), wild type, His-tagged, O95471 1-211 (natural protein)
chain: MANSGLQLLGFSMALLGWVGLVACTAIPQWQMSSYAGDNIITAQAMYKGLWMDCVTQSTGMMSCKMYDSVLALSAALQATRALMVVSLVLGFLAMFVATMGMKCTRCGGDDKVKKARIAMGGGIIFIVAGLAALVACSWYGHQIVTDFYNPLIPTNIKYEFGPAIFIGWAGSALVILGGALLSCSCPGNESKAGYRVPRSYPKSNSSKEYV
stoichiometry N: 2 and 3
